According to the supplement of paper PMC10126150:
± gives the standard deviation of the averaged measurements.

Test system: ATP
Test: switch fluorescence ratio, 500 uM ATP over buffer (Cy3 cluster intensity, sum of 5 cycles each) (fold (ratio)); higher = stronger signal-on switching upon ATP binding; sequences stand for … in TCGTCGGCAGCGTCAGATGTGTATAAGAGACAGTTTTTTTTTTTTTTTTTTTTTTTTT…TC
Conditions: aptamer strand: ATP DNA aptamer (quencher-CACCTGGGGGAGTATTGCGGAGGAAGG + anchor), 100 nM annealed; ATP concentration: 500 uM
In short: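 Per cluster, summed Cy3 intensity from the target cycles was divided by that from the buffer cycles to give the fluorescence ratio, then averaged per switch-domain sequence. Clusters outside 100-1000 RFU were excluded. The Cy3-labelled switching-strand clusters, on a modified Illumina MiSeq flow-cell, were annealed to 100 nM quencher-labelled ATP aptamer and imaged in selection buffer, then after 15 min with 500 uM ATP at 22 °C, for five cycles with NaOH stripping and re-annealing between them.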
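Further: ATP exposure 15 min at 22 °C before imaging.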

Sequence	switch fluorescence ratio
TGCGAGGGGG	1.01 ± 0.033
AAGTAGTGGG	0.96 ± 0.028
TGCTTGAGCA	0.974 ± 0.019
GGAGATTGCG	0.96 ± 0.046
GGGGATTATA	1.01 ± 0.015
GTTGGAGTGC	0.9817 ± 0.0017
CCTGTTGGGG	0.991 ± 0.039
TGATTTTATT	0.974 ± 0.011
AAAAAAAAGG	1 ± 0.05
GTAAGTGAAG	1.05 ± 0.014
GGAGGTGTTA	1.01 ± 0.031
CTTGGAATGT	1.01 ± 0.029
CGAGTCCCCT	1.04 ± 0.033
GAATCTGTGT	0.998 ± 0.031
AGGGTGTCCG	1.09 ± 0.054
TCTGACGTAC	2.57 ± 0.19
AATTCAACAG	1.01 ± 0.03
TTCATTAGCT	1 ± 0.025
GTAGTACAAG	0.986 ± 0.026
ACGGCTGTGC	1.02 ± 0.013
GAAAAAGCGG	1.04 ± 0.015
CGTTAGTAAA	0.9862 ± 0.0035
CCATTTTATT	0.988 ± 0.031

Sequence	switch fluorescence ratio
ACCCTGGCAA	1.36 ± 0.41
GAGTTAAGGG	1.007 ± 0.0018
GGGGTTTGTT	0.992 ± 0.034
GGATTGGACG	0.976 ± 0.016
TGAGCCTCGG	0.965 ± 0.032
GACGAAAAAG	0.982 ± 0.017
TGGTTGTTCC	1.03 ± 0.025
TAATGCCAGG	1.088 ± 0.0038
TATGGAAGTA	1.01 ± 0.033
TTTTGGTCTG	1.01 ± 0.031
CGCATTTTTT	1.13 ± 0.12
TGGGATGCTT	0.981 ± 0.011
CGGTTCGAGT	1.01 ± 0.035
TTTATAGAAA	1.05 ± 0.02
GGGAAATCAT	0.997 ± 0.015
TGGTGCCCCA	1.03 ± 0.023
CATCAGGTTT	0.991 ± 0.0015
AGTAGGTTTT	1.04 ± 0.078
CGGTTTGATT	1.04 ± 0.073
GAGGTTTAAG	0.957 ± 0.052
AATAATCGGT	0.975 ± 0.035
AATTAGCTGA	1.01 ± 0.029
ATGGTCGGCA	0.985 ± 0.034

Sequence	switch fluorescence ratio
ACCAGAGGTA	1.01 ± 0.014
AAAAAATGGG	1.01 ± 0.012
GGGAATCGTG	0.983 ± 0.012
TGGTAAAAAG	1.025 ± 0.0047
ATGGGGATGT	1.03 ± 0.079
GATCTACGGC	1.07 ± 0.024
AGAGGAATTC	1 ± 0.013
CTGGGTCTGA	1.02 ± 0.026
TTGGGGATTG	0.989 ± 0.021
ATCTGGGTAG	1.01 ± 0.03
CTTGGATGTC	0.985 ± 0.03
CAAGAAATTA	1 ± 0.011
TGGAGTGTTT	0.94 ± 0.021
GCATTGTACG	0.991 ± 0.03
ATGTAAAATG	1.04 ± 0.066
GGATTCTGGA	0.991 ± 0.031
CTATAACGTT	1.01 ± 0.005
AGTATTGCAG	0.9322 ± 0.002
TTTTAGGGAA	1.03 ± 0.035
GGCCGTTCGT	1.008 ± 0.0091
GATGACGAAT	1.023 ± 0.0047
AAGGATTGGG	1.02 ± 0.0049
AAGTGAGGGT	0.996 ± 0.036

Sequence	switch fluorescence ratio
GGGGGCAACG	1.03 ± 0.1
GTTATTTAGG	0.9966 ± 0.0084
GTTTCTTAGA	0.978 ± 0.036
TGGGGGCTTT	0.99 ± 0.023
AGATTGGGTA	1.01 ± 0.024
CGTTGTTAGT	1.037 ± 0.0083
GCTCTTGGTT	1.02 ± 0.045
AATTGGTGCA	0.96 ± 0.011
TGAGCTGCGT	1.01 ± 0.022
TTGGTTGGGG	1 ± 0.03
TAAGTGACGG	1.04 ± 0.036
ATTTATGTTA	0.985 ± 0.012
GTGGTATCCG	0.973 ± 0.058
TGGGAAAAAC	1.09 ± 0.1
TTGTATGGCA	0.973 ± 0.027
TTATTGGCTT	0.9895 ± 0.0037
CTGAGATCAG	1.01 ± 0.026
TCAAGGCAA	1.8 ± 0.037
TTATTATATG	0.971 ± 0.022
TAATGCGTGG	0.999 ± 0.032
GAATTATGGC	1.01 ± 0.085
AGGTTGGCTT	0.96006 ± 0.0007
TGACTTATGG	0.983 ± 0.08

Sequence	switch fluorescence ratio
AAAATAAGGC	0.981 ± 0.03
ATGGGCGCGC	0.982 ± 0.036
GTAATAAGAG	1.004 ± 0.0063
ACGACTGAAG	1.014 ± 0.0015
GGCCATTTTT	1.01 ± 0.03
GACCGATTGT	1.03 ± 0.065
TATGGATCGC	1.01 ± 0.026
GCGCTTGCTC	1.13 ± 0.013
ATGGAATCAG	1.015 ± 0.01
CACAAGCGAT	1.42 ± 0.063
TTTATAGCGG	0.996 ± 0.015
GGCCTAAAAG	0.978 ± 0.022
TGGTGGCCGC	0.982 ± 0.032
ATTATTGAGA	1.036 ± 0.004
TAAAGTTTTT	1.002 ± 0.0088
GCCGGGATGT	1.02 ± 0.052
GGGGGGCACC	0.994 ± 0.021
TCAAATTATG	1.01 ± 0.035
GGTTCATTCT	0.9917 ± 0.0062
GGAATCATGG	0.996 ± 0.046
TGCGTAGAGG	1.037 ± 0.006
AGAGGTGGAG	0.993 ± 0.03
TGATATATGG	0.9872 ± 0.0081

Sequence	switch fluorescence ratio
GAGGAGAATT	0.983 ± 0.018
CTTAAAGTCG	0.981 ± 0.0073
ATGTGGGATA	1.01 ± 0.063
GATTATGCGC	1.03 ± 0.037
TAGTAATGTG	0.993 ± 0.022
TTGGGGCCAT	0.999 ± 0.029
GGCTGACGTC	1 ± 0.038
CATTTTAGAG	0.98256 ± 0.00032
TTGCTGAGAC	1.24 ± 0.3
TCTTGAAATT	1.021 ± 0.0031
GTGGAATAAT	0.981 ± 0.015
TTTCCGTTTG	1.16 ± 0.32
TCGGTCGTGC	1.03 ± 0.034
CGTTGGGCTC	1.019 ± 0.0051
TCATATTTAT	0.996 ± 0.024
CGAGTTAGGC	1.03 ± 0.063
TCGTAATTGT	1.02 ± 0.024
TAACGGGTGG	1.01 ± 0.037
GAGGGGGGAG	0.986 ± 0.027
ATATAAAATG	0.986 ± 0.0046
AATACGGGAC	1.303 ± 0.0093
TTCTGGCTTT	1.16 ± 0.25
AGGGGAGGGA	1 ± 0.027

Sequence	switch fluorescence ratio
CTAAAGGACT	0.9989 ± 0.0015
TAGACGGGGA	0.984 ± 0.046
GACGTACAAC	1.619 ± 0.0099
AGCTTTTTGC	1.02 ± 0.038
ACTACAAGTT	1 ± 0.026
TGGAACTATA	1.02 ± 0.018
ACGACCGACA	1.95 ± 0.29
AGTTAAAGCT	1.151 ± 0.0063
GCATGATCAA	0.997 ± 0.031
TGATATCACT	0.996 ± 0.043
TAGAGAAGCA	1.012 ± 0.0061
AGTAGGCAAG	1 ± 0.035
TCAAACAGCG	0.9861 ± 0.00055
GGGGGAAATA	0.9815 ± 0.0055
AGTTTGGCGT	1.01 ± 0.041
TGCATCGGGG	0.983 ± 0.032
GTGTGGGGGG	1.02 ± 0.075
AGGCGTATTT	0.9987 ± 0.0062
AATAAGGTA	0.995 ± 0.022
